Test results from US20060160994A1.

Tests used:
[1] = molecular target: low density lipoprotein receptor-related protein (LRP), purified and immobilized (UniProt Q07954); assay: SPR, LRP immobilized (8.3 fmol/mm^2), analyte 100 nM, corrected for nonspecific binding
[2] = molecular target: LRP exposed on the surface of mouse fibroblast (C127) cells (mouse (mouse fibroblast cells)) (UniProt Q91ZX7); assay: cell-based or functional assay
Sequence of LRP exposed on the surface of mouse fibroblast (C127) cells (mouse (mouse fibroblast cells)) (Q91ZX7 20-4545): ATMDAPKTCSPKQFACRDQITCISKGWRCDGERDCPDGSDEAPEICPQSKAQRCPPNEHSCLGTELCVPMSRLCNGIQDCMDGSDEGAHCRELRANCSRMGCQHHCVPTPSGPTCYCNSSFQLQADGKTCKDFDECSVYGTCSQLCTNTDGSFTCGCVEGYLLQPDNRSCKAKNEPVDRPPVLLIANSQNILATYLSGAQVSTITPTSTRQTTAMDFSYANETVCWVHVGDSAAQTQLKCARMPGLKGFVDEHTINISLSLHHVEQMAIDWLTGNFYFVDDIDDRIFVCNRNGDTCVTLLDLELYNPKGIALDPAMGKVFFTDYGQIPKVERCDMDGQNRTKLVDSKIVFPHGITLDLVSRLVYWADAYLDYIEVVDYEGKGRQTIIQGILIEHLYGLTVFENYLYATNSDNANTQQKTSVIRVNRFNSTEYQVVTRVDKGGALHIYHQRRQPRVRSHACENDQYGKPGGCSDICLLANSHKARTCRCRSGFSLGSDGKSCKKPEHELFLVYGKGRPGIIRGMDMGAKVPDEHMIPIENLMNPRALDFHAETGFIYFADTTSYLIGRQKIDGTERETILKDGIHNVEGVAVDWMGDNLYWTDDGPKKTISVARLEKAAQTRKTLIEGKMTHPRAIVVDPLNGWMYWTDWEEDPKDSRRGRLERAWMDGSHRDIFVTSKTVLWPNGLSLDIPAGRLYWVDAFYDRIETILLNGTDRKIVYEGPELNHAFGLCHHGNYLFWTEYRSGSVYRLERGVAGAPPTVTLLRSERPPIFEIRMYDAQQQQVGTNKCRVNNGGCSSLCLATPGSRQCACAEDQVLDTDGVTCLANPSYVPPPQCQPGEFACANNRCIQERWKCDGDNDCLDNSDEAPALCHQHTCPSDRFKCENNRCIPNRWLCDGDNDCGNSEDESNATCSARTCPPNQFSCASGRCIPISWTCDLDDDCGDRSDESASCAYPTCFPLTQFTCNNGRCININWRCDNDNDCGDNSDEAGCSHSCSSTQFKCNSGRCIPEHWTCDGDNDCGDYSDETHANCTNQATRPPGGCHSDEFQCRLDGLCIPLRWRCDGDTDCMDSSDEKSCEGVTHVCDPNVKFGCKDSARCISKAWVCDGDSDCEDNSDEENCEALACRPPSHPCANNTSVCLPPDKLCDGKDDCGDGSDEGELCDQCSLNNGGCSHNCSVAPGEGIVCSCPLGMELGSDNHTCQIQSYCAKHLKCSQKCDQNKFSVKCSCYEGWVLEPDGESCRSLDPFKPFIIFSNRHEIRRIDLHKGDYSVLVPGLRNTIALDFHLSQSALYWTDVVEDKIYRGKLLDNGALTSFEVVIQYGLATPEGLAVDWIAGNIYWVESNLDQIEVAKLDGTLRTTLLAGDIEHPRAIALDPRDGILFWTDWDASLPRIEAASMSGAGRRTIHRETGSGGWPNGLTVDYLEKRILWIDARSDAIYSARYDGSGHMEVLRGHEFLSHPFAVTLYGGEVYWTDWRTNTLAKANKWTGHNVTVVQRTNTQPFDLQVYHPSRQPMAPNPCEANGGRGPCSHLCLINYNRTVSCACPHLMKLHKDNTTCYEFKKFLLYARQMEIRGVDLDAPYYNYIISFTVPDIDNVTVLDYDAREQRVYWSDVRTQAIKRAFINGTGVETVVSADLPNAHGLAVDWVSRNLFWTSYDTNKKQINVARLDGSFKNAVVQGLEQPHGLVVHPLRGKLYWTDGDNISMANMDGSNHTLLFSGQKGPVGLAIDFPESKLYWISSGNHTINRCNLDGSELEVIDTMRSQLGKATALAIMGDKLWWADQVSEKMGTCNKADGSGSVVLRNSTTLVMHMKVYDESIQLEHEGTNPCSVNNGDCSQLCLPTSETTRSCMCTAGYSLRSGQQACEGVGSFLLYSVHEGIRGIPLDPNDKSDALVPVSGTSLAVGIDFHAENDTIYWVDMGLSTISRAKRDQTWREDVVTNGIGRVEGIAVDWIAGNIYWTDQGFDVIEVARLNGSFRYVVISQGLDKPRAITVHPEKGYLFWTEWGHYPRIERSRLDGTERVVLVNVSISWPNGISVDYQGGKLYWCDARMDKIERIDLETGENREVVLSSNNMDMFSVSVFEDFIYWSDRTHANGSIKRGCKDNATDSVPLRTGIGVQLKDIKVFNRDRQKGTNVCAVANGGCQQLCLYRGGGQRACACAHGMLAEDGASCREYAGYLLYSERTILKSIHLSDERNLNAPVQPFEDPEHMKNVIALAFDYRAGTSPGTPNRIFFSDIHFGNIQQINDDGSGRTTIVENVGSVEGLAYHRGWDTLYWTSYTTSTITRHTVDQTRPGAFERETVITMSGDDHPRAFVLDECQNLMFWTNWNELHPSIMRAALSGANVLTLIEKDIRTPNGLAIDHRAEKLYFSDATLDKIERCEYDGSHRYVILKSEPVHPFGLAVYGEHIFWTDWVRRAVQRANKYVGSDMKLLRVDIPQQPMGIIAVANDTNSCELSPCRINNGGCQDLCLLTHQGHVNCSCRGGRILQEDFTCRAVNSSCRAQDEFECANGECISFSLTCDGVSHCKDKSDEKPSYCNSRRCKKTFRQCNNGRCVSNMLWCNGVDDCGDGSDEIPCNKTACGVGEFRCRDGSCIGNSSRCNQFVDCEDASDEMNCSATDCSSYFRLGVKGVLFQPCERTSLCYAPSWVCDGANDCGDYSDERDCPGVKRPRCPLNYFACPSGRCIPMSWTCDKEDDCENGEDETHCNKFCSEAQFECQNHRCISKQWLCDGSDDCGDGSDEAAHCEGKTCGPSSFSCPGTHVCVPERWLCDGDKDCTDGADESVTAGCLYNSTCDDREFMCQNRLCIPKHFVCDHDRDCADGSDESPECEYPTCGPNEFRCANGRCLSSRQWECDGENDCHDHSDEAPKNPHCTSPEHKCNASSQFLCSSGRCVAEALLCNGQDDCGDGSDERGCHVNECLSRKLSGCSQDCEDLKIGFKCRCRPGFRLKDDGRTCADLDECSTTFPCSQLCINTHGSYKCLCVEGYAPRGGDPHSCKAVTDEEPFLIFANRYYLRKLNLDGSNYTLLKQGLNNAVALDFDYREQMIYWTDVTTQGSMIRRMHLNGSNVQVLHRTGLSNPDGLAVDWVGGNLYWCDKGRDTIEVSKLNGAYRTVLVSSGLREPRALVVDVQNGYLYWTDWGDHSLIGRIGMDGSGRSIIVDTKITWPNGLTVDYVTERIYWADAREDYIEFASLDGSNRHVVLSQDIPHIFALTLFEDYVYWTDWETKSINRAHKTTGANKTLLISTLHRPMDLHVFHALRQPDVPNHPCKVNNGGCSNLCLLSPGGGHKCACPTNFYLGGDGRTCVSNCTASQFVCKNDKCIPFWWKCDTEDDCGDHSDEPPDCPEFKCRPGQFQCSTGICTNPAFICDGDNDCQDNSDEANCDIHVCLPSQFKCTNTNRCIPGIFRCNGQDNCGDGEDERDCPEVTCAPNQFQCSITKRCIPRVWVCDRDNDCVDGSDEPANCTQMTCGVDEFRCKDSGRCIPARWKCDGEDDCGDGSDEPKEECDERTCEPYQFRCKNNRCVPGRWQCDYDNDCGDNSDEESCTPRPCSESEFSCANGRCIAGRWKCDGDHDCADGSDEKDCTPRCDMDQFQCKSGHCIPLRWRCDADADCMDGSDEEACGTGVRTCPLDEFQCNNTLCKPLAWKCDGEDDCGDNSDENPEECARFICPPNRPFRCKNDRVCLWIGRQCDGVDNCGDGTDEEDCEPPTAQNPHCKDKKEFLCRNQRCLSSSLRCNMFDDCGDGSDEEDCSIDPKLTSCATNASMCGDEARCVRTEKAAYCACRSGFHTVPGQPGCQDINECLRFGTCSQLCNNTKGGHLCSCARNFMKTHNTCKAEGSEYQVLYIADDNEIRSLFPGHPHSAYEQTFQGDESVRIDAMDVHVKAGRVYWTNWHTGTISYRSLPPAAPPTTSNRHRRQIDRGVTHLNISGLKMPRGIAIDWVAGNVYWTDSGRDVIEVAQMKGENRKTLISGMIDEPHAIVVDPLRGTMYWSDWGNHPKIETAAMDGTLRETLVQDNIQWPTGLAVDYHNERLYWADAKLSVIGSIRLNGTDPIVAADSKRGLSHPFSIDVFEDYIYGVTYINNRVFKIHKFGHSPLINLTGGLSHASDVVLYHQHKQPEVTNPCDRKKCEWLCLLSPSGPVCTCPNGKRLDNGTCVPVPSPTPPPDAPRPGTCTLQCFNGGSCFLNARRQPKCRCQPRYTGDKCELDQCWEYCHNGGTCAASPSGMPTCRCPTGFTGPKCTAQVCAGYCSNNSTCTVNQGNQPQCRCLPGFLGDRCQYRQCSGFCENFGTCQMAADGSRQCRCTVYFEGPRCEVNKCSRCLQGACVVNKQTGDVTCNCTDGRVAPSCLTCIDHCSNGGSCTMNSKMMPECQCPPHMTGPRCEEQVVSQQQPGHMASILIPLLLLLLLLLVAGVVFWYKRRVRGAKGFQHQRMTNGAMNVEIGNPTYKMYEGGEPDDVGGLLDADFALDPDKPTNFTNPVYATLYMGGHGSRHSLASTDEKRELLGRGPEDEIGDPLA

Row | Binding (resonance units) (resonance units) [1] | Ratio +RAP/-RAP of Factor VIII expression (U/L) in medium of C127 cells, 2 h [2] | Ratio +RAP/-RAP of Factor VIII expression (U/L) in medium of C127 cells, 3 h [2] | Substance
1 | 446 |  |  | thrombin-activated Factor VIII (from UniProt P00451 20-391; P00451 392-759; P00451 1709-2351)
2 | 0 |  |  | heavy chain of Factor VIII (from UniProt P00451 20-1667)
3 | 262 |  |  | Factor VIII, P00451 20-1667; P00451 1668-2351
4 |  | 3.2 | 2.3 | normal Factor VIII (produced by stably transfected mouse fibroblast C127 cells) (from UniProt P00451 20-2351)
